Where two headings read alike, the source gives them in different places.
B1: MEDI8897 (antibody, V domains shown)
VH: QVQLVQSGAEVKKPGSSVMVSCQASGGLLEDYIINWVRQAPGQGPEWMGGIIPVLGTVHYGPKFQGRVTITADESTDTAYMELSSLRSEDTAMYYCATETALVVSETYLPHYFDNWGQGTLVTVSS
VL: DIQMTQSPSSLSAAVGDRVTITCQASQDIVNYLNWYQQKPGKAPKLLIYVASNLETGVPSRFSGSGSGTDFSLTISSLQPEDVATYYCQQYDNLPLTFGGGTKVEIKR
B2: F6-56 (antibody, V domains shown)
VH: QVQLVESGGDVVRPGTSLRLSCAASGFAFRSHALHWVRQAPGKGLEWVSVISYDGGHTNSADSVKGRFTVSRDNSKNILFLQMNSLRIEDTAVYFCARSEGSYRSWPGYFYYMDVWGNGTTVTVSS
VL: QSALTQPASVSGSPGQSITISCIGTSSDVGGYYYVSWYQQHPGKAPKLIIFDVSDRPSGVSSRFSGSQSGNTASLTISGLQAEDEADYYCNSYSSSTTPYVFGSGTKVTVL
B3: F6-47 (antibody, V domains shown)
VH: QVQLLESGGNVVQPGRSLSLSCVASGFALKSYAVHWVRQAPGKGLEWVAFVPYDAVTNYYADSVKGRFTVSRDISKNTVNLHMNRLMGEDTAVYFCARGATSGSYSFLGYNYYMDVWGRGTAVTVSS
VL: QSALTQPASVSGSPGQPITISCTGTSSDVGAYTYVSWYQHHPGKAPKLILFDVTDRPSGVSHRFSGSKSGNTASLTISGLQSEDEAEYYCSSYTDRNTIVFGGGTTLTVL
B4: F6-37 (antibody, V domains shown)
VH: QVHLVESGGNVVHPGTSLSLSCAGSGFTFKSHAIHWVRQAPGRGLEWVAFVPYDGATNYYADSLKGRFTVSRDNSRNTVSLHMNRLEGQDTAVYFCARGATSGSYSFLGYNYYMDVWGRGTTVTVSS
VL: QSALTQPASVSGSPGQSITISCTGTSSDVGAYTYVSWYQQLPGKAPKLLLFDVTDRPSGVAHRFSGSKSGNTASLTISGLQAEDEAEYYCSSYTDRNTLVFGGGTKLTVL
B5: F6-49 (antibody, V domains shown)
VH: QVQLVESGGGVVLPGTSLTLSCAASGFTFRHYAIHWVRQTPGGGLEWVAALPYDGSTKYFAESVKDRFTIYRDNSQAAAFLHMSSLTPGDTALYYCARSTYSYEYSFLGYFYYMDVWGRGTSVTVSS
VL: QSALTQPASVSGSPGQSISISCTGTSRDVGAYTYISWSQQHTGQAPKLLIYDVSERPSGVSDRFSGSKTGDTASLAISGLQAEDEAVYYCSSYTDSNTVVFGGGTKVTVL

How the values were obtained:
[1] = molecular target: RSV A2 pre-F (RSV A2); assay: BLI
[2] = molecular target: RSV A2 pre-F (RSV A2); assay: BLI; remark: listed apart in the source
[3] = molecular target: RSV A2 pre-F (RSV A2); assay: ELISA
[4] = molecular target: RSV A2 pre-F (RSV A2); assay: ELISA; remark: listed apart in the source

Binder	Kd [1] [pM]	Kd [2] [pM]	EC50 [3] [µg/mL]	EC50 [4] [µg/mL]
B1	122	379	0.0146	0.0313
B2	381		0.0141	
B3	343		0.00998	
B4	680		0.0117	
B5	713		0.0104	

Reference: US20260327294 (published 2026)
